# Data: patent publication US20240084003A1 (SIMCERE ZAIMING PHARMACEUTICAL, published 2024)
# Changes are numbered by the printed parent chain.
# T1: monkey CD22 on HEK293T-monkey CD22 cells (monkey)
# T1 construct: full-length entry expressed on stably transfected HEK293T cells
# T1 chain: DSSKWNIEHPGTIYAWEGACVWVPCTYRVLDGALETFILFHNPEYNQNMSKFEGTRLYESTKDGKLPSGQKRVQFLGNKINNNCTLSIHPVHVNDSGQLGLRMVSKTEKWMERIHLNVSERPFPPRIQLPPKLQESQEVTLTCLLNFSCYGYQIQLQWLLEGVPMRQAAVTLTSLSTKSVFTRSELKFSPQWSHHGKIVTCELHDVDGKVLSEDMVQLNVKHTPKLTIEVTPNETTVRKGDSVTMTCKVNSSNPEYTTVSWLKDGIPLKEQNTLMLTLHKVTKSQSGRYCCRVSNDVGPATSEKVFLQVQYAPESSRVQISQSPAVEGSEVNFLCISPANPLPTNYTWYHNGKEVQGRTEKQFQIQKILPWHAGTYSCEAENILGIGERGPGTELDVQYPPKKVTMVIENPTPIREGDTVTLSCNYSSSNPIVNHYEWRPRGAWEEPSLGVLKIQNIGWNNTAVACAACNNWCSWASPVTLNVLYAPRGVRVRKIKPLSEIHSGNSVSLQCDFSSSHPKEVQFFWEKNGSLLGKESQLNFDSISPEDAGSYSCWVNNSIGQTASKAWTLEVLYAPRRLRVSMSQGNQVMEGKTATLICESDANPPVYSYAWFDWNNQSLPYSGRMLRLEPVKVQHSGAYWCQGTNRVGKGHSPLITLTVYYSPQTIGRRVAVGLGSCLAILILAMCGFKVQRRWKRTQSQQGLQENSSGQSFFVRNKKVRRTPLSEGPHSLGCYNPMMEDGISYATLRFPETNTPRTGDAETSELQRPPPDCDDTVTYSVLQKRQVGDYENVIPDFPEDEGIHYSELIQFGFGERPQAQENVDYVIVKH
# B1: F1.17.1 (antibody, human IgG1, kappa, V domains shown)
# VH: QVQLKESGPGLVAPSQSLSITCTVSGFSLSRYTVHWVRQPPGKGLEWLGMIWGGGSTDYNSALKSRLSISKDNSKSQVFLKMNSLQTDDTAMYYCARPHDFDAGGFAYWGQGTLVTVSA
# VL: QIVLTQSPAILSTSPGEKVTMTCSASSRVNYMYWYQQKPGSSPRLLIYDTSNLASGVPVRFSGSGSGTSYSLTISRMEAEDAATYYCQQWTSYPLTFGAGTKLELKR
# notes: human-murine chimeric IgG1 kappa
# B2: F1.172.13 (antibody, human IgG1, kappa, V domains shown)
# VH: QVTLKESGPGILQSSQTLSLTCSFSGFSLSTSGMGVSWIRQPSGKGLEWLAHIYWDDDKRYNPSLKSRLTISKDTSRNQVFLKITSVDTADTATYYCARAPPPNWDEYYFDYWGQGTTLTVSS
# VL: DIQMTQSPASLSASVGETVTITCRASGNIHNSLAWYQQKQGKSPQLLVHNAKTLADGVPSRFSGSGSGTQYSLKINSLQPEDFGSYYCQHFWSTPPFGGGTKLEIKR
# notes: as for B1
# B3: F1.120.15 (antibody, human IgG1, kappa, V domains shown)
# VH: QVQLQQSGPELVKPGASVKISCKASGNAFSNSWMNWVKQRPGKGLEWIGRVYSEDGDTQYNGKFRDKATLTADRSTSTAYMQLSSLTSEDSAVYFCARWLIYYGTYGAMDYWGQGTSVTVSS
# VL: DIQMTQTTSSLSASLGDRVTISCRASQDINNYLNWYHQKPDGTVKLLIYFTSRPYSGVPSRFSGSGSGTDYSLTISNLEQEDIATYFCQQGNTLPWTFGGGTKLEIKR
# notes: as for B1
# B4: F1.62.10 (antibody, human IgG1, kappa, V domains shown)
# VH: QVQLQQSGPELVKPGASVKISCKASGYEFSSIWMNWVKQRPGEGLEWIGRIFPGDGEINYNEKFKGKATLTADRSSTTAYMQLSSLTSEDSAVYFCAGWRIYYGTYGAMDYWGQGTSVTVSS
# VL: B3 VL with T7I, N30G, H37Q, F50Y, P54L, Y55H, G68R, E79Q
# notes: as for B1
# B5: F1.105.11 (antibody, human IgG1, kappa, V domains shown)
# VH: EVQLQQSGPVLVKPGASVKMSCKASGYTFSDYFMNWVKQSHGKSLEWIGIINSYSGGTSYNQKFKGKATLTVDKSSSTAYMELNSLTSEDSAVYYCARWMDYWGQGTSVTVSS
# VL: DVQITQSPSYLAASPGETITINCRTSESISKHLAWYQEKPGKTNKLLIYSGSTLQSGIPSRFSGSGSGTDFTLTISSLEPEDFAMYYCQQHNEYPWTFGGGTKLEIKR
# notes: human-murine chimeric IgG1 kappa; VL name legible
# B6: F1.245.2 (antibody, human IgG1, kappa, V domains shown)
# VH: EVQLQQSGAELVKPGASVKLSCTGSGFNIKDYYIHWVKQRTEQGLEWMGRIDPEDGETEYAPKFQDEATITSDTSSNTAYLQLSSLTYEDTAVYYCAREAAGYFYRGSSYGYFDVWGTGTTVTVSS
# VL: DFQMTQTTSFLSASLGDRVTISCSASQDISNYLNWYQQKPDGTVKLLIYYTSSLHSGVPSRFSGSGSGTDYSLTISNLEPEDIATYYCQQYSMLPYTFGGGTKLEMER
# notes: as for B1
# B7: F1.257.3 (antibody, human IgG1, kappa, V domains shown)
# VH: QVQLQQSGPELARPGASVKLSCKASGYTFTSYGISWVKQRTGQDLEWIGEIYPKLGTTYYNEKFKDKATLTTDRSSSTAYMALRSLTSEDSAVYFCACPHYYATRGGDYWGQGTTLTVSS
# VL: EIVLTQSPATLSVTPGDSVTFSCRASQSISNHLHWYQQKSHESPRLLIRYASQSISGIPSRFSGSGSGTDFTLSLSSVETEDFGVYFCQQSHSWPYTFGGGTKLEIAR
# notes: as for B5
# B8: F1.224.1 (antibody, human IgG1, kappa, V domains shown)
# VH: EVLLHQSGPELVKPGASVKISCKASGYTFTDFNMDWVRQRHGQSLEWIGDVNPNNGGTIYNQKFKGKATLTVDKSSSTVYMDLRSLTSDDTAVYYCVRLGTSDYGEAWFISWGQGTVVTVSA
# VL: DIVLTQSPASLAVSLGQRATISCRASQSVSTPRYSFMHWYQQKPGQPPKLLIKYASNLESGFPARFTGSGSGTDFTLNIHPVEEEDTAAYYCQQSWAIPWTFGGGTKLEIKR
# notes: as for B5
# B9: F1.7.6 (antibody, human IgG1, kappa, V domains shown)
# VH: EIQLQQSGPELVKPGTSVKVSCKASGYDFTRYNMYWVKQSHGKSLEWIGYIDPYNGDTRYNQKFKGKATLTVDKSSSTAYMHLNSLTSEDSAVYYCEAIYYDMEGYALDYWGQGTSVTVSS
# VL: DIVMSQSPSSLAVSVGEKVTMSCKSSQSLLYSNNQKNYLAWYQQKPGQSPKKLIYWASTRESGVPDRLTGSGSGTDFTLTISSVTAEDLAVYYCQQFYSYPWTFGGGTKLEIKR
# notes: as for B5
# B10: F1.267.9 (antibody, human IgG1, kappa, V domains shown)
# VH: EVQLQQSGPVLVKPGASVKMSCKASGYTFTDFYMNWAKQSHGKSLEWVGVINPYNGGINYNQKFKGKATLTVDKSSSTAYMEFNSLTSEDSAVYYCARRMEYHAMDYWGQGTSVTVSS
# VL: DIVLTQSPASLAVSLGQRATISCRASESVDNYGFDFIHWYQQKPGQPPKLLIYRASNLESGIPARFSGSGSRPDFTLTINPVETDDVATYYCQQSIKDPWTFGGGTKLEIKR
# notes: as for B5
# B11: F1.250.16 (antibody, human IgG1, kappa, V domains shown)
# VH: QVQLQQSGAEQVKPGASVKMSCKASGYTFTTYPIEWMKQNHGESLDWIGNIHPYNDDTEYNEKFKGKATLTVEKSSNTVFLELSRLTSDDSAVYYCVRGDYYNSRYWYFDVWGTGTTVTVSS
# VL: DIVMTQSQKFMSTTVGDRVSITCKAGQNVRTAVAWYQQKPGQSPKLLIYSASTRYIGVPERFTGSGSGTDFTLTITNMQSEDLADYFCQQYSSFPLTFGTGTKLELKR
# notes: as for B5
# B12: F1.200.11 (antibody, human IgG1, kappa, V domains shown)
# VH: QNQLVQSGPELKKPGETVKISCKASGYTFTTAGMQWVQKMPGKGFKWIGWINTLSGEPKYAEDFKGRFAFSLETSATTAYLQISNLKNEDTATYFCARAYYSNLYWYFDVWGTGTTVTVSS
# VL: DIVMTQSQKFMSTTVGDRVTITCKASQNVVTAVAWYQQKPGQSPKVLIYSASNRYSGVPDRFTGSGSGTDFTLTISNMHSEDLANYFCHQYSSYPFTFGSGTKLEIKR
# notes: as for B1
# B13: F1.216.2 (antibody, human IgG1, kappa, V domains shown)
# VH: QVQLQQSGPEVVRPGASVKISCKASGYAFSSSWMNWMKQRPGKALEWIGRIYPGDGDTNYSGEFKVKATLTADKSSSTAYMQLSSLTSEDSAVYFCAREGSYYSNPWYFDYWGQGTTLTVSS
# VL: DVLVTQTPLSLPVSLGDQASISCRSSQSIVQSNGDTYLEWYLQKPGQSPKLLIYKVSNRFSGVPDRFSGSGSGTDFTLKISRVEAEDLGVYYCFQGSHVPFTFGSGTKLEIKR
# notes: as for B1
# B14: F1.60.9 (antibody, human IgG1, kappa, V domains shown)
# VH: QVQLKESGPGLVAPSQSLSITCTVSGLSLNNYGVSWVRQPPGKGLEWLGVIWGDGSTNYHSALISRLSISKDNSKSQVFLKLNSLHTDDTATYYCAINWGDYWGQGTTLIVSS
# VL: DIKMTQSPSSMNASLGERVTITCKASQDINSYLSWFQQKPGKSPKILIYRANRLIDGVPSRFSGSGSGQDYSLTISSLEYEDMGIYYCLQYGVFPLTFGAGTKLELKR
# notes: as for B1
# B15: F1.192.1 (antibody, human IgG1, kappa, V domains shown)
# VH: AVQLQQSGVELVRPGASVKLSCTGSDFNIKEDYIHWVKQRPEQGLEWIGWIDPENGDTEYASKFQGKATITADTSSNTAYLQLSSLTSEDTAVYYCATYGSLDYWGQGTTLTVSS
# VL: DIKMTQSPSSMYAFLGERVTITCKASQGINSFLTWFQQKPGKSPKTLIYRANRLVDGVPSRFSGSGSGQDYSLTISSLEYEDVGIYYCLQYDEFPRTFGGGTKLEIKR
# notes: as for B1
# B16: F1.231.15 (antibody, IgG1, V domains shown)
# VH: QVQLQQPGAELVKPGASVKLSCKTSGYTFTIYWMQWVKQRPGRGLEWIGRIDPHSGDTHYNENFTTKVTLTVDETSNTAYMHLSGLTSEDSAVYYCARRDYSYYVLDYWGQGTSVTVSS
# VL: DVVLTQTPLSLPVSLGDQASISCRSSQSLVHINGDTYLHWYLQKPGQSPKLLIYTVFNRFSGVPDRFSGSGSGTDFTLKISRVEAEDLGAYFCSQSTHVPYTFGGGTKLEIKR
# notes: as for B1
# Target: T1, monkey CD22 on HEK293T-monkey CD22 cells
# Experiment: FACS, HEK293T-monkey CD22 cells
# Experimental: For suspension cell Raji, the medium supernatant was directly centrifuged and discarded, and the cell pellet was washed 2 times with PBS. After counting the cells in the previous step, the cell pellet was resuspended with [PBS+2% (w/w) BSA] blocking solution to 2×10⁶ cells/ml, and added to a 96-well FACS reaction plate at 50 μl/well, and then the chimeric antibody test sample was added at 50 μl/well, and incubated on ice for 2 hours. The mixture was centrifuged and washed 3 times with PBS buffer, Alexa Flour 488-labeled secondary antibody (purchased from Invitrogen, catalog number: A-11013) was added at 50 μl/well, and incubated on ice for 1 hour. The obtained mixture was centrifuged and washed 5 times with PBS, and FACS (FACS Canto™, purchased from BD Company) was used for detection and result analysis. Data analysis was performed by software (CellQuest) to obtain the mean fluorescence density (MFI)of the cells. And then software (GraphPad Prism8) was used for analysis, data fitting, and EC50 value calculation. […] The same method was used to detect the binding of the chimeric antibodies to endogenous CD22-negative cell MoLT4 cells (purchased from ATCC, CRL-1582) and CHO-K1 cells.
# HEK293T-monkey CD22 cells were subjected to FACS detection and data analysis according to the method in Example 5.2.
Binder,EC50 [nM],Maximum mean fluorescence intensity [MFI]
B1,0.38,17200
B2,0.47,19000
B3,0.95,13600
B4,41.1,4330
B5,1.3,7530
B6,,124
B7,,147
B8,0.79,16300
B9,2.22,9220
B10,1.15,15300
B11,0.31,19700
B12,4.32,16200
B13,0.26,13900
B14,,531
B15,0.62,16300
B16,12.3,9250
